Legend:
[1] = biological target: FlgY_(15–172), FlgY without the predicted signal peptide (C. jejuni 81-176); experiment: SEC; Superdex 200 Increase 10/300 GL; 20 mM Tris-HCl pH 8.0, 300 mM NaCl
[2] = biological target: FlgY_(90–172) (C. jejuni 81-176); experiment: as above
PflB_(113–820) = biological target: T1, PflB_(113–820) (C. jejuni 81-176, UniProt A0A6F9L7Y3 113-820); experiment: cryo-EM structure; single-particle cryo-EM of the purified PflA16-788 and PflB113-820 complex at 0.4 mg/ml; 3.23 Å; settings: both partners purified
T1 construct: PflB of C. jejuni 81-176, residues 113-820; 178-820 resolved in the cryo-EM structure; also called PflB_(178–820) (the part built in the model)
T1 sequence: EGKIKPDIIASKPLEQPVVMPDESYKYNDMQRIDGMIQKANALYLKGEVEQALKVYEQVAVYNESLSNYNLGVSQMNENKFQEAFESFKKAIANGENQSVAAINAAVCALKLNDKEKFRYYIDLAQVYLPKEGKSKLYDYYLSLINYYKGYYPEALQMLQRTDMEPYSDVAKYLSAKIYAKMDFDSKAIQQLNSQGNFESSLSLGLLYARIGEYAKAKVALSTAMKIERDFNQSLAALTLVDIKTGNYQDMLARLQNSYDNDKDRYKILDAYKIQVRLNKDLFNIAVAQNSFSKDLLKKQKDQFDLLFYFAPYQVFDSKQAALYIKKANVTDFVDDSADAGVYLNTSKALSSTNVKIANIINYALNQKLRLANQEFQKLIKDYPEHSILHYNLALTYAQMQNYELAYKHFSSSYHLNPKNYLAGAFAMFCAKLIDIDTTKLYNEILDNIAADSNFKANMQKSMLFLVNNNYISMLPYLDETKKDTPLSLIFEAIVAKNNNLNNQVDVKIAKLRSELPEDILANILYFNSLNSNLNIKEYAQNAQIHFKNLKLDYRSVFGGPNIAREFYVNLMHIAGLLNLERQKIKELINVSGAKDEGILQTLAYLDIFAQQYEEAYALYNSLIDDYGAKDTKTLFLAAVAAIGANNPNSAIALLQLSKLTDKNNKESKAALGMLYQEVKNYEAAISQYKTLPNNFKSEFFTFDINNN

PflA_(16–788)-Strep = biological target: T2, PflA_(16–788)-Strep (C. jejuni 81-176, UniProt Q46092 16-788); experiment: MST
T2 chain: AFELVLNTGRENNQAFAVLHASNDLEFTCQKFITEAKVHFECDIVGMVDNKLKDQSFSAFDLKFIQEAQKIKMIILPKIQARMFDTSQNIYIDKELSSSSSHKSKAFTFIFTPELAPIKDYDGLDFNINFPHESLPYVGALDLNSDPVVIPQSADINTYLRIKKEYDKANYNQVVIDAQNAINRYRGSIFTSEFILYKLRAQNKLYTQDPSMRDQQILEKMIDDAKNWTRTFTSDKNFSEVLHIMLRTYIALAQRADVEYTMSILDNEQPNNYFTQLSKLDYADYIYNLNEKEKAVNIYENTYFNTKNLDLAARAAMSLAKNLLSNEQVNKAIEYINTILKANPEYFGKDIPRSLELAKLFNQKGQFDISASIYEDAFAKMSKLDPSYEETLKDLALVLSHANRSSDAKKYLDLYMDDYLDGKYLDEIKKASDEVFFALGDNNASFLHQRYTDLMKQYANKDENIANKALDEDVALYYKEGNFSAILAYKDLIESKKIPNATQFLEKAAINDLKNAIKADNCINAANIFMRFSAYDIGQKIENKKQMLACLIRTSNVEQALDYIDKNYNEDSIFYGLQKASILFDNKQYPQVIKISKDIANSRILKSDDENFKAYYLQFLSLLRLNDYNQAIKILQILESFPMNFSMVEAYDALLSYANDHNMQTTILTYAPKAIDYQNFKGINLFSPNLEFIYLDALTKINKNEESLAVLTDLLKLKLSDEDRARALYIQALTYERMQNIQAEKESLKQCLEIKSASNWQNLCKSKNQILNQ

FlgY_(15–172), FlgY without the predicted signal peptide (domain or fragment)
stoichiometry N [1]: 2

FlgY_(90–172) (domain or fragment)
stoichiometry N [2]: 2

B1: PflA_(16–788) of the purified PflA_(16–788) and PflB_(113–820) complex (domain or fragment)
chain: T2 chain
notes: PflA of C. jejuni 81-176, residues 16-788; only 16-163 (β-sandwich domain and flexible loop) are resolved in the cryo-EM structure; PflA16-788 was cloned both in pET22b (C-terminal 6×His) and in pET26b (C-terminal Strep-tag); also called PflA_(16–163) (the part resolved in the map)
stoichiometry N (PflB_(113–820)): 1

B2: FlgY_(15–172), FlgY without the predicted signal peptide (domain or fragment)
chain: VFGAEQDCEQYFEARKAQIELQTREFDEARQSLEAYKASFEALQKERLENLEKKEAEVNATLAKIEELKLENARLVEEQQKILNSINDKTQGRVKEIYSQMKDAAIADVLSQMDAEDASKIMLSLESRKISGVLSKMDPKKASELTLLLKNLDNNASN
Kd (PflA_(16–788)-Strep): 3.5 µM
